Results reported in patent US20200181259A1 (Innovent, published 2020).

T1: mouse CD47-Fc (mouse, UniProt Q61735 19-140, limits assumed)
T1 construct: not shown: Fc part
T1 sequence (looked up): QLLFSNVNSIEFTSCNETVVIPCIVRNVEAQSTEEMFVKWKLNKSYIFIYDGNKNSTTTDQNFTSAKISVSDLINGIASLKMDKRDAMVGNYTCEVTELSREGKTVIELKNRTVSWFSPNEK


Columns and labels:
mouse CD47-Fc [1] = target: T1, mouse CD47-Fc; experiment: bio-light interferometry (ForteBio), IgG1 on AHQ tip, mouse CD47-Fc in solution, bivalent
[2] = target: T2, human CD47 overexpressed on CHO cells (human, UniProt Q08722 19-292); experiment: flow cytometry competition on CHO-hCD47 cells against 200 nM mouse Fc-labelled SIRPα
T2 construct: CHO cells transfected with pCHO1.0 bearing a human CD47 cDNA (Sino Biological); also called hCD47; CHO-hCD47 cells
Experimental: Then the cells were washed 3 times and subsequently incubated with a secondary antibody, goat-anti-mouse IgG-APC (Allophycocyanin) (Biolegend), in PBS with 0.1% BSA on ice for 30 min (in dark). Cells were washed 3 times. Flow cytometry assay was performed on Accuri C6 System (BD Biosciences) and MFI was calculated with C6 software.

[3] = target: T2, human CD47 overexpressed on CHO cells; experiment: flow cytometry on CHO-hCD47 cells, PE anti-human IgG
Experimental: Then the cells were washed at least two times and incubated with a secondary antibody (PE-labelled goat anti-human IgG antibody, Southern Biotech, final concentration of 5 μg/ml) in PBS with 0.1% BSA on ice for 30 min (in dark). The cells were washed at least two times and analyzed by flow cytometry. Flow cytometry was performed on Accuri C6 System (BD Biosciences) and a concentration-dependent graph was fitted with GraphPad, according to MFI of the cells.

Human CD47-Fc [4] = target: T3, Human CD47-Fc (human, UniProt Q08722 19-139, limits assumed); experiment: bio-light interferometry (ForteBio), IgG1 on AHQ tip, human CD47-Fc 100 nM in solution, bivalent
T3 construct: the whole entry is named here; also called human CD47 (hCD47); CD47 antigen; not shown: Fc part

cynomolgus CD47-Fc = target: T4, cynomolgus CD47-Fc (cynomolgus, UniProt A0A2K5X523 19-139); experiment: bio-light interferometry (ForteBio), IgG1 on AHQ tip, cynomolgus CD47-Fc 100 nM in solution, bivalent
T4 construct: not shown: Fc part

Human CD47-Fc [5] = target: T3, Human CD47-Fc; experiment: bio-light interferometry (ForteBio), human CD47-Fc on AHQ tip, Fab 100 nM in solution, monovalent
mouse CD47-Fc [6] = target: T1, mouse CD47-Fc; experiment: bio-light interferometry (ForteBio), IgG1 on AHQ tip, mouse CD47-Fc 100 nM in solution, bivalent
Experimental: In brief, Sensors were equilibrated off-line in assay buffer for 30 min and then tested on-line for 60 sec to establish the base line. The purified antibody obtained as described above was loaded on-line onto AHQ sensor (ForteBio) to perform ForteBio affinity measurement. Then, the sensor loaded with the antibody was exposed to 100 nM of CD47 antigen for 5 min, followed by transferring the sensor into the assay buffer for 5 min to measure the dissociation rate. A kinetics analysis was performed using the 1:1 binding model.

Binder | binding result (mouse CD47-Fc [1]) | IC50 [2] | EC50 [3] | Kd (Human CD47-Fc [4]) | Kd (Human CD47-Fc [5]) | further results
ADI-26624 in IgG1 format produced in yeast cells (antibody, also called ADI26624-IgG1) heavy: not shown light: DIQMTQSPSSVSASVGDRVTITCRASQGISRWLAWYQQKPGKAPKLLIYAASSLQSGVPSRFSGSGSGTDFTLTISSLQPEDFATYYCQQADLHPPLTFGGGTKVEIKRTVAAPSVFIFPPSDEQLKSGTASVVCLLNNFYPREAKVQWKVDNALQSGNSQESVTEQDSKDSTYSLSSTLTLSKADYEKHKVYACEVTHQGLSSPVTKSFNRGEC | no binding (tested: 100 nM) | 11.2 nM | 2.25 nM | 1.05 nM | – | –
ADI-26624 in IgG4 format produced in CHO cells (antibody, also called ADI26624-IgG4) heavy: not shown light: DIQMTQSPSSVSASVGDRVTITCRASQGISRWLAWYQQKPGKAPKLLIYAASSLQSGVPSRFSGSGSGTDFTLTISSLQPEDFATYYCQQADLHPPLTFGGGTKVEIKRTVAAPSVFIFPPSDEQLKSGTASVVCLLNNFYPREAKVQWKVDNALQSGNSQESVTEQDSKDSTYSLSSTLTLSKADYEKHKVYACEVTHQGLSSPVTKSFNRGEC | – | 1.04 nM | – | – | – | –
ADI-29336 in IgG4 format produced in CHO cells (antibody, also called ADI29336-IgG4) heavy: not shown light: DIQMTQSPSSVSASVGDRVTITCRASQGISRWLAWYQQKPGKAPKLLIYAASSLQSGVPSRFSGSGSGTDFTLTISSLQPEDFATYYCQQADLHPPLTFGGGTKVEIKRTVAAPSVFIFPPSDEQLKSGTASVVCLLNNFYPREAKVQWKVDNALQSGNSQESVTEQDSKDSTYSLSSTLTLSKADYEKHKVYACEVTHQGLSSPVTKSFNRGEC | – | 1.39 nM | 2.48 nM | – | – | –
ADI-29336 in IgG1 format produced in yeast cells (antibody, also called ADI29336-IgG1) heavy: not shown light: DIQMTQSPSSVSASVGDRVTITCRASQGISRWLAWYQQKPGKAPKLLIYAASSLQSGVPSRFSGSGSGTDFTLTISSLQPEDFATYYCQQADLHPPLTFGGGTKVEIKRTVAAPSVFIFPPSDEQLKSGTASVVCLLNNFYPREAKVQWKVDNALQSGNSQESVTEQDSKDSTYSLSSTLTLSKADYEKHKVYACEVTHQGLSSPVTKSFNRGEC | no binding (tested: 100 nM) | 8.55 nM | 6.72 nM | 0.477 nM | – | Kd (cynomolgus CD47-Fc): 0.544 nM
ADI-26624 in Fab format (Fab, V domains shown) VH: QVQLQESGPGLVKPSETLSLTCTVSGGSISSYYWSWIRQPPGKGLEWIGYIYYSGSTNYNPSLKSRVTISVDTSKNQFSLKLSSVTAADTAVYYCARGKSAFDPWGQGTLVTVSS VL: DIQMTQSPSSVSASVGDRVTITCRASQGISRWLAWYQQKPGKAPKLLIYAASSLQSGVPSRFSGSGSGTDFTLTISSLQPEDFATYYCQQADLHPPLTFGGGTKVEIKR | – | – | – | – | 65.8 nM | –
ADI-29336 in Fab format (Fab, V domains shown) VH: QVQLQESGPGLVKPSETLSLTCTVSGGSISNYYWSWIRQPPGKGLEWIGTIYYSGSTRYNPSLKSRVTISVDTSKNQFSLKLSSVTAADTAVYYCARGKSAFNPWGQGTLVTVSS VL: DIQMTQSPSSVSASVGDRVTITCRASQGISRWLAWYQQKPGKAPKLLIYAASSLQSGVPSRFSGSGSGTDFTLTISSLQPEDFATYYCQQADLHPPLTFGGGTKVEIKR | – | – | – | – | 1.32 nM | –
ADI-30794 in IgG1 format produced in yeast cells (antibody, V domains shown, also called ADI 30794-IgG1) VH: EVQLLESGGGLVQPGGSLRLSCAASGFTFGNYAMSWVRQAPGKGLEWVSAISGSGGKTYYADSVKGRFTISRDNSKNTLYLQMNSLRAEDTAVYYCAKTAIYYGFDLWGRGTLVTVSS VL: DIQLTQSPSSVSASVGDRVTITCRASQGISSWLAWYQQKPGKAPKLLIYGASSLQSGVPSRFSGSGSGTDFTLTISSLQPEDFATYYCQQKNPFPPFFGGGTKVEIKR | no binding (tested: 100 nM) | – | 3.7 nM | 0.562 nM | – | –
ADI-29341 in Fab format (Fab, V domains shown) VH: QVQLQESGPGLVKPSETLSLTCTVSGGSIEHYYWSWIRQPPGKGLEWIGYIYYSGSTNYNPSLKSRVTISVDTSKNQFSLKLSSVTAADTAVYYCARGKTGSAAWGQGTLVTVSS VL: DIQMTQSPSSVSASVGDRVTITCRASQGISRWLAWYQQKPGKAPKLLIYAASSLQSGVPSRFSGSGSGTDFTLTISSLQPEDFATYYCQQTVSFPITFGGGTKVEIKR | – | – | – | – | 4.62 nM | –
ADI-29371 in Fab format (Fab, V domains shown) VH: EVQLLESGGGLVQPGGSLRLSCAASGFTFGNYAMSWVRQAPGKGLEWVSMISGGGSTYYADSVKGRFTISRDNSKNTLYLQMNSLRAEDTAVYYCAKTPIYYGFDLWGRGTLVTVSS VL: DIQLTQSPSSVSASVGDRVTITCRASQGISSWLAWYQQKPGKAPKLLIYGASSLQSGVPSRFSGSGSGTDFTLTISSLQPEDFATYYCQQKNPFPPTFGGGTKVEIKR | – | – | – | – | 218 nM | –
ADI-30793 in Fab format (Fab, V domains shown) VH: EVQLLESGGGLVQPGGSLRLSCAASGFTFDSYAMTWVRQAPGKGLEWVSVISGSGGKTYYADSVKGRFTISRDNSKNTLYLQMNSLRAEDTAVYYCAKTHLYYGFDLWGRGTLVTVSS VL: DIQLTQSPSSVSASVGDRVTITCRASQGISSWLAWYQQKPGKAPKLLIYGASSLQSGVPSRFSGSGSGTDFTLTISSLQPEDFATYYCQQKNPFPPFFGGGTKVEIKR | – | – | – | – | 9.34 nM | –
ADI-30793 in IgG1 format produced in yeast cells (antibody, V domains shown, also called ADI 30793-IgG1) VH: EVQLLESGGGLVQPGGSLRLSCAASGFTFDSYAMTWVRQAPGKGLEWVSVISGSGGKTYYADSVKGRFTISRDNSKNTLYLQMNSLRAEDTAVYYCAKTHLYYGFDLWGRGTLVTVSS VL: DIQLTQSPSSVSASVGDRVTITCRASQGISSWLAWYQQKPGKAPKLLIYGASSLQSGVPSRFSGSGSGTDFTLTISSLQPEDFATYYCQQKNPFPPFFGGGTKVEIKR | – | – | 2.92 nM | 0.632 nM | – | Kd (mouse CD47-Fc [6]): 4.57 nM; Kd (cynomolgus CD47-Fc): 0.584 nM
ADI-26591 in IgG1 format, expressed in yeast (antibody, V domains shown, also called ADI 26591-IgG1) VH: not shown VL: DIQLTQSPSSVSASVGDRVTITCRASQGISSWLAWYQQKPGKAPKLLIYGASSLQSGVPSRFSGSGSGTDFTLTISSLQPEDFATYYCQQKNPFPPTFGGGTKVEIKR | no binding (tested: 100 nM) | – | 3.77 nM | 5.38 nM | – | Kd (cynomolgus CD47-Fc): 3.39 nM
ADI-30794 in Fab format (Fab, V domains shown) VH: EVQLLESGGGLVQPGGSLRLSCAASGFTFGNYAMSWVRQAPGKGLEWVSAISGSGGKTYYADSVKGRFTISRDNSKNTLYLQMNSLRAEDTAVYYCAKTAIYYGFDLWGRGTLVTVSS VL: DIQLTQSPSSVSASVGDRVTITCRASQGISSWLAWYQQKPGKAPKLLIYGASSLQSGVPSRFSGSGSGTDFTLTISSLQPEDFATYYCQQKNPFPPFFGGGTKVEIKR | – | – | – | – | 3.13 nM | –
ADI-29341 in IgG1 format produced in yeast cells (antibody, also called ADI29341-IgG1) heavy: not shown light: DIQMTQSPSSVSASVGDRVTITCRASQGISRWLAWYQQKPGKAPKLLIYAASSLQSGVPSRFSGSGSGTDFTLTISSLQPEDFATYYCQQTVSFPITFGGGTKVEIKRTVAAPSVFIFPPSDEQLKSGTASVVCLLNNFYPREAKVQWKVDNALQSGNSQESVTEQDSKDSTYSLSSTLTLSKADYEKHKVYACEVTHQGLSSPVTKSFNRGEC | no binding (tested: 100 nM) | 2.48 nM | 3.34 nM | 0.501 nM | – | –
ADI-29341 in IgG4 format produced in CHO cells (antibody, also called ADI29341-IgG4) heavy: not shown light: DIQMTQSPSSVSASVGDRVTITCRASQGISRWLAWYQQKPGKAPKLLIYAASSLQSGVPSRFSGSGSGTDFTLTISSLQPEDFATYYCQQTVSFPITFGGGTKVEIKRTVAAPSVFIFPPSDEQLKSGTASVVCLLNNFYPREAKVQWKVDNALQSGNSQESVTEQDSKDSTYSLSSTLTLSKADYEKHKVYACEVTHQGLSSPVTKSFNRGEC | – | 0.604 nM | 1.89 nM | – | – | –
ADI-29371 in IgG4 format produced in CHO cells (antibody, also called ADI 29371-IgG4) heavy: not shown light: DIQLTQSPSSVSASVGDRVTITCRASQGISSWLAWYQQKPGKAPKLLIYGASSLQSGVPSRFSGSGSGTDFTLTISSLQPEDFATYYCQQKNPFPPTFGGGTKVEIKRTVAAPSVFIFPPSDEQLKSGTASVVCLLNNFYPREAKVQWKVDNALQSGNSQESVTEQDSKDSTYSLSSTLTLSKADYEKHKVYACEVTHQGLSSPVTKSFNRGEC | – | – | 2.31 nM | – | – | –
ADI-29371 in IgG1 format produced in yeast cells (antibody, also called ADI 29371-IgG1) heavy: not shown light: DIQLTQSPSSVSASVGDRVTITCRASQGISSWLAWYQQKPGKAPKLLIYGASSLQSGVPSRFSGSGSGTDFTLTISSLQPEDFATYYCQQKNPFPPTFGGGTKVEIKRTVAAPSVFIFPPSDEQLKSGTASVVCLLNNFYPREAKVQWKVDNALQSGNSQESVTEQDSKDSTYSLSSTLTLSKADYEKHKVYACEVTHQGLSSPVTKSFNRGEC | no binding (tested: 100 nM) | – | 2.13 nM | 1.95 nM | – | Kd (cynomolgus CD47-Fc): 1.41 nM
